Article PMC10938136

Biological target: Komagataella phaffii Ero1 (Komagataella phaffii) (UniProt F2QNN1)
UniProt F2QNN1, sequence (F2QNN1 entry or part of it): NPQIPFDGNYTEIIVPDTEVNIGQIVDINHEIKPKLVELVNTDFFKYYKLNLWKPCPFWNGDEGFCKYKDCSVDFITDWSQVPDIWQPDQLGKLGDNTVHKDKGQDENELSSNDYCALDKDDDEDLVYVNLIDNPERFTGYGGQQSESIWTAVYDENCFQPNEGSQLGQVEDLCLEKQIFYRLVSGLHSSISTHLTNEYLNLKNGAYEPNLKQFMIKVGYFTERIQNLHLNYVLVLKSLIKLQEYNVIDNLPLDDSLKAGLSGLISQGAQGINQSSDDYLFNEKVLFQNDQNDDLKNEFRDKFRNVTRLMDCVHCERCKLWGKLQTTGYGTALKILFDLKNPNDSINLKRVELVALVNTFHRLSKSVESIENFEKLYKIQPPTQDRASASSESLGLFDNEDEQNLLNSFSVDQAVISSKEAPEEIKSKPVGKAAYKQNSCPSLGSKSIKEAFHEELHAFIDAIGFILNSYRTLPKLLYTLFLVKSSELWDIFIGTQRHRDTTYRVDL

- K M PDI for Erp41 as substrate of 1 μM Ero1–Pdi1 complex, oxygen consumption assay (titration of Erp41, 10 mM GSH): 7.07 µM
- kcat of oxygen consumption, 1 μM Ero1–Pdi1 complex plus 10 μM Erp41: 1.95 s⁻¹
Substance: Komagataella phaffii Erp41, full length, purified (enzyme)
